The text below walks through data of article doi:10.1101/2024.10.14.618219.

This assay concerns the target microtubules polymerized from porcine tubulin (porcine) (UniProt Q2XVP4). The assay can be described thus: single-molecule TIRF microscopy on microtubules.

Kif3A^ΔC103-Kif3B, sequence (Q9Y496 1-596, stated change not applied): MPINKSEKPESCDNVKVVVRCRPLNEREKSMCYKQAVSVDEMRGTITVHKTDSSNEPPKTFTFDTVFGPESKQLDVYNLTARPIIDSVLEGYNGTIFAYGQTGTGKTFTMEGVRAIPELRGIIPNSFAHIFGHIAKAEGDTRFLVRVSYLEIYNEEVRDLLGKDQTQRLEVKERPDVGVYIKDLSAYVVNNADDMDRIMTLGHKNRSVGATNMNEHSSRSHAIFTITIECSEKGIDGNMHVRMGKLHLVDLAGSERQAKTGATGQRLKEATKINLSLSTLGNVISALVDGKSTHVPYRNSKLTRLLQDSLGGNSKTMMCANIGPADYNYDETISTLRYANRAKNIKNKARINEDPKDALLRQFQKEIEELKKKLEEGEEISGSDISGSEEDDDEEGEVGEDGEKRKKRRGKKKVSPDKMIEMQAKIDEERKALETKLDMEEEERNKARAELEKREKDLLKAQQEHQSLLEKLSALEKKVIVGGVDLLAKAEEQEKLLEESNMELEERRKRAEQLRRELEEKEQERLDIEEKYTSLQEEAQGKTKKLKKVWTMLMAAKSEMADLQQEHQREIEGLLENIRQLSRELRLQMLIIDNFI
Kif3A^ΔC103-Kif3B, sequence (O15066 whole entry, stated change not applied): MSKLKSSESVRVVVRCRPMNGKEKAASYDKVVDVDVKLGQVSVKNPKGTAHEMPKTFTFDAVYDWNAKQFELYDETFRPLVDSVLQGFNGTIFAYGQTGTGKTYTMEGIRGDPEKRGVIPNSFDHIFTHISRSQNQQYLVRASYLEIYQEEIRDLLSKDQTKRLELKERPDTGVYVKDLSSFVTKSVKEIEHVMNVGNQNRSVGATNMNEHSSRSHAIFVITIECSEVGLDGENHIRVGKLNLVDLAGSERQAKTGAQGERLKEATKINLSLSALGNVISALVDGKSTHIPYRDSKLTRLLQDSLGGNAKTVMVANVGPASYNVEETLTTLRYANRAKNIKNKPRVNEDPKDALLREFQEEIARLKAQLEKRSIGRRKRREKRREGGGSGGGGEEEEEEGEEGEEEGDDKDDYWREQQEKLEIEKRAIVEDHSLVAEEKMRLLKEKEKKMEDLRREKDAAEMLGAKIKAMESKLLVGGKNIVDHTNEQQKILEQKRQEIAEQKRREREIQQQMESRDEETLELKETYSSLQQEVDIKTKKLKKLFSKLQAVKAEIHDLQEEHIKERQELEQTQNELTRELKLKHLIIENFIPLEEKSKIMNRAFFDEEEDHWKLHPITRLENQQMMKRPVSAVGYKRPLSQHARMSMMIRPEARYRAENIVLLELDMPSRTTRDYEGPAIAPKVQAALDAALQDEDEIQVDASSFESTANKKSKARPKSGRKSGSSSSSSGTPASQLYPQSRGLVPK
Kif3A^ΔC89-Kif3B, sequence (Q9Y496 1-610, stated change not applied): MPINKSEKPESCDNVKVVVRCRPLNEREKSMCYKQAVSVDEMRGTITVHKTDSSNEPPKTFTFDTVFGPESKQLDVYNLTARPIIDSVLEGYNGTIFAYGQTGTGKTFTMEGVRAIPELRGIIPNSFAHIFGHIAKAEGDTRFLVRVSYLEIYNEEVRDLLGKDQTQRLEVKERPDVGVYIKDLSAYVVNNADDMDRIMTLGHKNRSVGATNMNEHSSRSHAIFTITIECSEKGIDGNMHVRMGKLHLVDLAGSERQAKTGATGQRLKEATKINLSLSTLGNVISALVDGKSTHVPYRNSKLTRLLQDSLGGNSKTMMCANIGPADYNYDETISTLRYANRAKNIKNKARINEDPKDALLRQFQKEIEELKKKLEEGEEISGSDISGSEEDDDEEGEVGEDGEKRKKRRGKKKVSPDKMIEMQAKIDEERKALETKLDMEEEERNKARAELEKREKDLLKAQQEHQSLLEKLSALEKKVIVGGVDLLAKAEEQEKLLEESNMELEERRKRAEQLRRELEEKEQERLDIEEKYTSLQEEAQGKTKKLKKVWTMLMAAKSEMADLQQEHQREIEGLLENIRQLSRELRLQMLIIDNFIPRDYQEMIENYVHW
Kif3A^ΔC89-Kif3B, sequence (O15066 whole entry, stated change not applied): as the sequence (O15066 whole entry, stated change not applied) above

As to “Kif3A^ΔC89-Kif3B (from UniProt Q9Y496 1-610; O15066 1-747) (complex)”, the landing rate (μm^-1 nM^-1 min^-1) was 0.6.

Substance “Kif3A^ΔC103-Kif3B (from UniProt Q9Y496 1-596; O15066 1-747) (complex)” came in with a landing rate (μm^-1 nM^-1 min^-1) of 0.6.
